We go through 144 sequences from the Immune Epitope Database (IEDB).

The target in the test is HLA-A*02:01. As to the kind of experiment: IEDB peptide-MHC binding, purified MHC/competitive/radioactivity; ≥ and ≤ were set here for values at or beyond the usual limits of such assays. The following applies: source organism: Human alphaherpesvirus 1.

A word on the IC50: it is the midpoint of a concentration-inhibition curve.

On to AIVVVIILV, for which the IC50 is 6910 nM. The figure for ALAAIENYV is 2.7 nM; for ALAFDSTRV it is 649 nM; for ALAPVFAFL it is 2.2 nM.

With ALATALTEA, the IC50 was determined as 10 nM. Under ALAVFQPAV stands 1.6 nM; under ALDHYDCLI, 180 nM; under ALGERLDAV, 25 nM. The figure for ALGLSAFGV is 9.6 nM. The figure for ALGMRGLVL is 491 nM; for ALHQCFTEL it is 831 nM; for ALHTALATV it is 16 nM. Consider ALLDRDCRV, for which the IC50 worked out at 5.6 nM.

Turning to ALLEACLRV, the IC50 is 6.6 nM. Under ALLGAWPAV stands 2.5 nM; under ALLPAPITL, 132 nM. As to ALLQQTWTL, the IC50 came to 0.39 nM. For ALMAGYFKI, the IC50 is 49 nM.

In the case of ALMGAVTSL, the IC50 was found to be 4.2 nM. Regarding ALMLRLLRI, the IC50 is 46 nM.

Turning to ALMRGRPGL, the half-inhibitory concentration (IC50) amounted to 1680 nM. Under ALPDTVAPV stands 9.1 nM; under ALQTDNYTL, 29 nM. Under ALSALLTKL stands 313 nM; under ALSPALTAL, 194 nM; under ALSPVLPPM, 30 nM.

In the case of ALVACVAAL, the IC50 is 55 nM. Take ALVAWLTHA: the IC50 was 15 nM. Under ALVELNSGV stands 9.3 nM; under ALYACVLAA, 5.6 nM; under ALYYSVENV, 38 nM.

Consider AMDLVLAAV, for which the IC50 was 4.4 nM. Take AMDSDLGSL: the half-maximal inhibitory concentration (IC50) was found to be 978 nM. Regarding AMHARMAAV, the IC50 is 19 nM. The figure for AMNRRIMNV is 1190 nM; for AVFGVVAIV it is 250 nM. AVGELLAPV: the IC50 is 84 nM. With AVHDPERPL, the IC50 was determined as 3940 nM. For AVLADFSLV, the IC50 is 134 nM. The figure for AVLAFVALI is 107 nM; for AVVPIIPFL it is 1030 nM; for AVWISLAQV it is 259 nM.

CLAEYCTSL: the IC50 was 186 nM. As for CLLCNLLLV, the IC50 was found to be 60 nM. The figure for CLSDLLGFL is 88 nM. As to CMFGVVSPA, the 50% inhibitory concentration (IC50) worked out at 9.5 nM. In the case of DLAEWVPRV, the IC50 is 4.3 nM. The figure for DLWNVMYTL is 333 nM; for DMTPAELEV it is 669 nM. ELACLLMYL: the IC50 turned out to be 54 nM. Under ELFGEAFEV stands 90 nM. Regarding EMADTFLDT, the IC50 is 1770 nM. With EMIRYMALV, the IC50 amounted to 179 nM. With FAASANFFL, the IC50 turned out to be 142 nM.

With FADSDGHYV, the IC50 is 142 nM.

FADTVVACV: the IC50 was determined as 59 nM. In the case of FAFRYVNRL, the IC50 worked out at 122 nM. The figure for FALDRPCLV is 76 nM; for FIAPLGFSL it is 6.5 nM. FILDALAQA: the IC50 turned out to be 2.6 nM. Under FILDNPGFV stands 11 nM; under FIPQYLSAV, 15 nM; under FITTMAPRV, 32 nM.

Turning to FIYLALLEA, the IC50 worked out at 11 nM. The figure for FLAASALGV is 7.4 nM; for FLADAVVRL it is 52 nM; for FLALVSNRV it is 7.4 nM. Under FLAPELVRA stands 12 nM; under FLARFWTRA, 48 nM; under FLASLVVLA, 1.7 nM.

For the sequence FLCAKCLGA, the IC50 stood at 137 nM. Under FLCTADAAV stands 3 nM; under FLEDLSYPA, 0.64 nM. The figure for FLGAGALAV is 80 nM. Under FLGDDPSPA stands 13 nM. As for FLGGHVAVA, the IC50 came out at 65 nM. Under FLGSCICFI stands 12 nM.

Take FLHDVENFL: the IC50 was 12 nM. As for FLHLYLFLT, the 50% inhibitory concentration (IC50) came to 564 nM. The figure for FLLAKLTDI is 10 nM; for FLLKQFHAA it is 53 nM. For FLMAPDLYV, the IC50 was determined as 6.4 nM. The figure for FLNQANCKI is 458 nM. FLQPTADLL: the IC50 turned out to be 26 nM. In the case of FLRSCHWVL, the half-inhibitory concentration (IC50) was found to be 582 nM.

With FLRYHCPGL, the IC50 came to 188 nM.

Take FLSAKTLTV: the 50% inhibitory concentration (IC50) came to 11 nM.

With FLSDSEAEA, the IC50 is 2.6 nM.

Regarding FLSRPINTI, the IC50 came out at 528 nM. As to FLSTLPSDV, the half-inhibitory concentration (IC50) was 76 nM. With FLTCTDRSV, the IC50 came out at 83 nM. Under FLTPLSVTL stands 4.7 nM. As for FLTREILWA, the IC50 turned out to be 4.2 nM.

FLTTPVPSL: the IC50 is 111 nM.

Consider FLVPGTHVA, for which the IC50 came out at 45 nM. Turning to FLWSFLVLK, the 50% inhibitory concentration (IC50) came out at 1420 nM. The figure for FLYLAFVAL is 1970 nM; for FMAAKAAHL it is 276 nM; for FMHIWLQAA it is 81 nM.

For the sequence FMPDFSRVI, the IC50 came out at 101 nM. As for FMQPDNANL, the IC50 is 47 nM.

As for FMSVVNTNI, the half-maximal inhibitory concentration (IC50) came out at 60 nM. Under FMTALVLSL stands 0.8 nM; under FMVSSIDEL, 1.1 nM; under FTATSIARV, 74 nM. For the sequence FTINIAAYL, the IC50 turned out to be 123 nM. Under FTLPVLTFV stands 1.1 nM; under FTQKSLFPI, 84 nM; under FVADVQHAA, 7750 nM. Under FVALIPPTL stands 704 nM. On to FVAPYFESV, for which the IC50 worked out at 8.7 nM.

Turning to FVFVILARL, the IC50 was 720 nM. Take FVGVIILGV: the 50% inhibitory concentration (IC50) amounted to 5.9 nM.

Turning to FVPYVLALV, the IC50 turned out to be 0.9 nM.

As for FVVWALLGL, the IC50 came to 196 nM. With FVVYNLTGV, the IC50 was 2.2 nM. As to FVWQERAAV, the IC50 turned out to be 261 nM. The figure for FVYTPSPYV is 129 nM; for FWMSPVFNL it is 96 nM; for GIAWYVTSI it is 143 nM.

For the sequence GILTVVWTA, the IC50 came to 2.1 nM.

In the case of GLARLDALV, the IC50 turned out to be 13 nM. The figure for GLAVAMEV is 25 nM; for GLAVDLYAL it is 12 nM; for GLAVVLWSL it is 17 nM. As to GLDEQQLDV, the IC50 was 1180 nM. Regarding GLFFSVYAL, the IC50 turned out to be 23 nM. The figure for GLFQEAYPL is 5.4 nM. As to GLFQPFMFV, the IC50 was 37 nM. As to GLFVSLPVV, the IC50 came out at 4.7 nM. Under GLGRHLWRL stands 133 nM; under GLISFYNFL, 1.5 nM; under GLLFVLLVA, 1060 nM. The figure for GLLGSLVGA is 3.7 nM. Take GLLRVGADT: the IC50 turned out to be 23900 nM. In the case of GLNGDSFRV, the half-maximal inhibitory concentration (IC50) stood at 22 nM. The figure for GLVFRFSEV is 262 nM. The figure for GLVLVWYTV is 66 nM; for GLVSFNFLV it is 0.5 nM.

On to GLWVCATSL, for which the IC50 came to 36 nM. The figure for GLYLCVVYV is 47 nM; for GMHPRGVHA it is at least 70000 nM; for GMLICLTVL it is 548 nM. On to GMRGLVLAT, for which the IC50 turned out to be 3660 nM.
